Patent US5498695A, “Paranitroaniline peptides” (Pfizer Inc., priority 1994, dated 1996)

Legend:
Assay in all cases: Spectrophotometric hydrolysis of pNA substrates by immobilized ICE (release of pNA at 405 nM)
Format in all cases: biochemical, Human
Settings in all cases: other: pNA substrate 0.01 to 1.5 mM, 25° C., pH 7
[1] = substrate: CC(=O)N[C@@H](Cc1ccc(O)cc1)C(=O)N[C@H](C(=O)N[C@@H](C)C(=O)N[C@@H](CC(=O)O)C(=O)Nc1ccc([N+](=O)[O-])cc1)C(C)C
Description: (§1) Other procedures for purification and assaying ICE are disclosed in Black et al., FEBS Letters, 247, 386-390 (1989), and Thornberry et al., Nature, 356, 768-774 (1992). Cell Culture And Lysates.
(§2) Human monocyte cell line, THP-1 (ATCC-TIB 202) was grown in RPMI media 1640 (Gibco BRL Gaithersburg, Md. 20877) with 10% fetal bovine serum, harvested by centrifugation, washed twice in Dulbecco's PBS […] without Ca^++, and resuspended in 10 mM Tris-HCl pH 8 buffer containing 5 mM DTT (dithiothreitol), 1 mM EDTA (ethylene diamine tetraacetic acid), 1 mM PMSF (phenylmethyl sulfonylfluoride), 1 μg/ml pepstatin, and 1 μg/ml leupeptin at 1-3×10^8 cells per ml. Cells were frozen at -70° C. until use and then lysed by thawing. Lysates were cleared by centrifugation at 20,000× g for 1 hour followed by 120,000×g for 1 hour.
(§3) ICE activity was purified from THP-1 cell lysates by three chromatographic steps: (A) Thp-1 cell lysate (1.5L) was desalted by G25 column chromatography (Pharmacia LKB Biotechnology) (B) The protein fraction was then subjected to ion-exchange chromatography on Q-Sepharose Fast Flow (Pharmacia LKB Biotechnology) in buffer A (20 mM Tris pH 7.8 containing 5 mM EDTA, 1 mM PMSF, 1 μg/ml pepstatin, and 1 μg/ml leupeptin). ICE activity was eluted with a gradient of NaCl in buffer A. (C) The active fractions from B were desalted, concentrated and subjected to MonoQ (trademark) (Pharmacia LKB Biotechnology) column chromatography. ICE activity was then eluted in a NaCl gradient. Active ICE fractions from C were pooled and used to bind immunoaffinity beads containing covalently linked antibodies raised against the first […] N-terminal residues of ICE (NH2 -Asp-Pro-Ala-Met-Pro-Thr-Ser-Ser-Val-Lys-Leu-Cys(SEQ ID NO:2)-CONH2).
(§4) Immobilization of ICE to immunoaffinity beads was done following standard protocols. Briefly, IgG fractions were covalently linked to protein A beads as described by the manufacturers (Antibody Orientation Kit Protein A Agarose supplied by Affinica (trademark) (Product manufactured by Schleicher and Schuell)). Protein A beads were pelleted by centrifugation and washed with 5 times their volume with Affinica (trademark) supplied "binding buffer". IgG, appropriately diluted in "binding buffer," was then bound to the beads. The beads were then washed and the bound IgG was covalently linked with dimethyl suberimidate. After the reaction was stopped with the "quenching buffer" supplied by Affinica (trademark), the immunoaffinity beads were washed and stored in PBS buffer containing 0.02% NAN3. […]
(§5) The enzymatic reaction was monitored spectrophotometrically at […]. The increase in absorbance at this wave length resulted from the release of pNA chromophore after hydrolysis by ICE of the peptidic-pNA substrate. […]

[2] = substrate: CC(=O)N[C@H](C(=O)N[C@@H](C)C(=O)N[C@@H](CC(=O)O)C(=O)Nc1ccc([N+](=O)[O-])cc1)C(C)C
Description: as §1, §2, §3, §4, §5

[3] = substrate: CC(C)[C@H](NC(=O)OC(C)(C)C)C(=O)N[C@@H](C)C(=O)N[C@@H](CC(=O)O)C(=O)Nc1ccc([N+](=O)[O-])cc1
Description: as §1, §2, §3, §4, §5

[4] = substrate: CC(C)[C@H](NC(=O)OCc1ccccc1)C(=O)N[C@@H](C)C(=O)N[C@@H](CC(=O)O)C(=O)Nc1ccc([N+](=O)[O-])cc1
Description: as §1, §2, §3, §4, §5

B1: interleukin 1β converting enzyme (ICE) (Homo sapiens) (protein)
chain 1: NPAMPTSSGSEGNVKLCSLEEAQRIWKQKSAEIYPIMDKSSRTRLALIICNEEFDSIPRRTGAEVDITGMTMLLQNLGYSVDVKKNLTASDMTTELEAFAHRPEHKTSDSTFLVFMSHGIREGICGKKHSEQVPDILQLNAIFNMLNTKNCPSLKDKPKVIIIQACRGDSPGVVWFKD
chain 2: AIKKAHIEKDFIAFCSSTPDNVSWRHPTMGSVFIGRLIEHMQEYACSCDVEEIFRKVRFSFEQPDGRAQMPTTERVTLTRCFYLFPGH
notes: ICE activity was purified from THP-1 cell lysates by three chromatographic steps; endogenous in cells; host or cells: THP-1 (ATCC-TIB 202) human monocyte cell line; Lysate was purified over G25, Q-Sepharose and MonoQ, then captured on protein A agarose beads carrying anti-ICE antibody
Q: Which results are given for B1?
A: Km [1]: 43.8 µM; Km [2]: 447 µM; Km [3]: 443 µM; Km [4]: 97.9 µM
